In patent US8415106B2, “Cell-based screen for agents useful for reducing neuronal demyelination or promoting neuronal remyelination” (Myelin Repair Foundation, Inc., priority 2005, dated 2013):
Several values for one entry are separate records, joined by “and”; a condition that tells them apart may be missing. Equal entries are not always repeated. Where two headings read alike, the source gives them in different places.

Legend:
[1] = test system: myelinating oligodendrocytes in the CNS; type: in vivo
Text: To study the effect of INF-γ on the myelination of oligodendrocytes during mouse development, transgenic mice that allow for temporally regulated delivery of IFN-γ to the CNS using the tetracycline (tet) controllable system (Lin, et al. (2004) J. Neurosci. 24: 10074-10083) were generated. To drive tTA expression in astrocytes, the transcriptional regulatory region of the glial fibrillary acidic protein (GFAP) gene was chosen (Brenner, et al. (1994) J. Neurosci. 14: 1030-1037). GFAP/tTA mice were mated with TRE/IFN-γ mice to produce animals hemizygous for both transgenes. When these mice are maintained on doxycycline (DOX+), expression of the IFN-γ transgene is repressed (FIG. 10A); when the double transgenic mice are released from doxycycline (DOX−) INF-γ is expressed. For the purpose of these experiments, mice received doxycycline up to day 14 of development (E14), at which time the experimental animals (DOX−) stopped receiving doxycycline, while the control animals (DOX+) were continuously fed the dug. The mRNA for IFN-γ could be detected in the DOX− mice as early as 10 days after birth (data not shown).
Brain and spinal cord tissue were analyzed using immunohistochemical methods as follows. Anesthetized mice were perfused through the left cardiac ventricle with 4% paraformaldehyde in 0.1M PBS. The half-saggital brains and transcervical spinal cord were removed, postfixed with paraformaldehyde, cryopreserved in 30% sucrose, embedded in OCT and frozen on dry ice. Frozen sections were cut in a cryostat at a thickness of 10 μm. Coronal sections at the fornix region of the corpus callosum corresponding to. Sidman sections 241-251 were selected for use, and all comparative analyses were restricted to midline corpus callosum (Sidman, et al. (1971) Atlas of the Mouse Brain and Spinal Cord (Harvard Univ. Press, Cambridge, Mass.). For immunohistochemistry, frozen sections were treated with −20° C. acetone, blocked with PBS containing 10% NGS and 0.1% Triton X-100 and incubated overnight with the primary antibody diluted in blocking solution. Appropriate fluorochrome- or enzyme-labeled secondary antibodies (Vector Laboratories, Burlingame, Calif.) were used for detection. An antibody against CC1 (APC7, 1:50; EMD Biosciences, Inc., La Jolla, Calif.) was used as a marker for mature oligodendrocytes. Antibody against MBP (1:1000; Sternberger Monoclonals, Lutherville, Mass.) was used to verify the degree of myelination. Antibody against active-caspase-3 (1:50, Cell signaling Technology, Beverly, Mass.) was used as a marker for apoptotic cells. Fluorescent stained sections were mounted with Vectashield mounting medium with DAPI (Vector Laboratories) and visualized with a Zeiss Axioplan fluorescence microscope. Images were captured using a Photometrics PXL CCD camera connected to an Apple Macintosh computer using the Open Lab software suite. Immunopositive cells were quantified by counting positive cells within the median of the corpus callosum, confined to an area of 0.04 mm^2. Only those cells with nuclei observable by DAPI staining were counted. Each MBP immunostaining slide was scored on a scale of zero to four. A score of zero indicates complete demyelination, and a score of four indicates normal myelination in the corpus callosum of adult mice. […]

[2] = test system: mice with EAE; assay: MOG 35-55-induced EAE, CNS delivery of INF-γ at EAE onset (PERK+/+ double or PERK+/− triple mice); type: in vivo; conditions: for Mean of maximum clinical score (mean ± S.D.): 0-5 point scale; for Mean of maximum clinical score (mean ± S.D.) / Day of onset of disease (PID: postimmunization day): n = 25
[3] = test system: Stat1; assay: Stat1 nuclear translocation assay in mixed primary oligodendrocyte cultures; type: cell-based, mice; conditions: 100 U/mL IFN-γ for 30 min, one hundred PLP positive cells counted
Description: Mixed primary oligodendrocyte cultures were prepared as previously described (Baerwald et al., 2000). Briefly, brain tissue was harvested from 2-3-day-old newborn pups of PLP/SOCS1 and C57B1/6J matings. Because the litters contained transgenic and wild-type pups, the brain of each animal was processed individually, cultured separately, and later genotype matched. Each brain was digested separately using 0.25% trypsin and 10 μg/ml of DNAaseI (Invitrogen) in Dulbecco's modified Eagle's medium (DMEM) for 20 min at 37° C., and cells were cultured on separate poly-D-lysine-coated […] flasks (Sigma-Aldrich). The cultures were maintained with 10% fetal bovine serum DMEM at 37° C. with 5% CO2 for 12 days, and then switched to a defined medium containing […] of insulin, 50 μg/ml of transferrin, 30 nM of selenium, 10 nM of biotin, 1 nM of progesterone, 15 nM of T3, 0.1% bovine serum albumin, and 1% […] (Sigma-Aldrich). […] One hundred PLP positive cells were manually counted in both wild-type and PLP/SOCS1 cultures. […]
The responsiveness of PLP/SOCS1 oligodendrocytes to IFN-γ was studied in primary mixed glial cultures. […] In contrast, Stat1 nuclear translocation was detected only in occasional PLP positive oligodendrocytes (6±2 cells) following IFN-γ stimulation (p<0.05).

B1: IFN-γ: pleotropic cytokine secreted by activated T lymphocytes and natural killer cells; recombinant rat IFN-γ added to cultures or transgenically expressed in mouse CNS (protein, UniProt P01581 23-156, looked up)
Interferon gamma: QGTLIESLESLKNYFNSSSMDAMEGKSLLLDIWRNWQKDGNTKILESQIISFYLRLFEVLKDNQAISNNISVIESHLITNFFSNSKAKKDAFMSIAKFEVNNPQIQHKAVNELIRVIHQLSPESSLRKRKRSRC
unmyelinated axons in the spinal cord ([1]; 14-day-old, IFN-γ expressed, PERK+/− background, doxycycline-maintained 9.8%±6.1%): 81%±14.9% | decrease of oligodendrocyte numbers in the spinal cord ([1]; 14-day-old, IFN-γ expressing, PERK+/− background): more than 50% | unmyelinated axons in the spinal cord ([1]; 14-day-old, released from doxycycline at E14, wild-type background): 30%±12.9% | mice that died by post natal day (PND) 27 ([1]; double transgenic, released from doxycycline at E14, PERK+/− background): more than 90% | TUNEL positive oligodendrocytes in the cervical spinal cord, PERK+/− versus wild-type background ([1]; released from doxycycline at E 14): 2.5 times | Incidence of death ([2]; DOX− double mice (PERK+/+)): 0/25 | Mean of maximum clinical score (mean ± S.D.) ([2]; DOX− double mice (PERK+/+)): 1.63 ± 0.51 | Day of onset of disease (PID: postimmunization day) ([2]; DOX− double mice (PERK+/+)): 14.7 ± 1.4 | Incidence of hind limb paralysis ([2]; DOX− double mice (PERK+/+), listed as INF-γ): 2 of 25 and 2/25 | MBP mRNA level in the spinal cord versus age-matched naive mice ([2]; DOX− double mice, PID17, DOX+ double mice decreased by 30%): not significantly decreased | Incidence of death ([2]; DOX− triple mice (PERK+/−)): 3/25 | Incidence of hind limb paralysis ([2]; DOX− triple mice (PERK+/−)): 18/25 | Mean of maximum clinical score (mean ± S.D.) ([2]; DOX− triple mice (PERK+/−)): 2.71 ± 1.11 | Day of onset of disease (PID: postimmunization day) ([2]; DOX− triple mice (PERK+/−)): 13.6 ± 0.8 | PLP positive oligodendrocytes with Stat1 nuclear translocation ([3]; PLP/SOCS1 cultures): 6±2 cells | PLP positive oligodendrocytes with Stat1 nuclear translocation ([3]; wild-type cultures): 96±3 cells
